Results published in patent US20220323445A1, “REDUCING IMMUNOGENICITY TO PEGLOTICASE” (Horizon Therapeutics Ireland DAC, priority 2020, published 2022).

Test system: serum uric acid (sUA)
Experiment: Serum uric acid (sUA) levels and sUA responders, open-label study of pegloticase with MTX (NCT03635957)
Assay type: in vivo, human
Experimental: The primary objective is to estimate the response rate during Month 6 (Weeks 20, 22, and 24), as measured by the sustained normalization of serum uric acid (SUA) to <6 mg/dL for at least 80% of the time during Month 6 in subjects receiving KXX with MTX.
The primary efficacy outcome endpoint is the sustained normalization of SUA to <6 mg/dL for at least 80% of the time during month 6 (weeks 20, 22, and 24) in subjects receiving KXX with MTX. This is slightly below the urate solubility threshold and this threshold has been the accepted standard for nearly all modern gout trials. Participants who achieve this endpoint were classified as “responders.” Serum uric acid (SUA) responders may also be defined as participants achieving and maintaining SUA <6 mg/dL for at least 80% of the time during Month 6 (Weeks 20, 22, and 24).
Blood samples may be collected prior to each pegloticase infusion for measurement of SUA levels using the Beckman Coulter AU System Uric Acid procedure. Participants were declared “non-responders” if there were SUA measures >6 mg/dL at 2 consecutive study visits beginning with the week 2 visit. […] If the SUA goal is not maintained before or at the 12-week mark, it was assumed that the participant had developed clinically relevant anti-pegloticase antibody and they received no further infusions. This assumption and subsequent discontinuation of pegloticase was consistent with the protocol of large phase III randomized controlled trials and the product label. A formal stopping rule was 2 occasions of SUA levels of greater than 6 mg/dL.
Clinical Chemistry—Blood samples were collected prior to each pegloticase infusion for measurement of SUA levels (primary efficacy parameter) using the Beckman Coulter AU System Uric Acid procedure. In this procedure uric acid is converted to hydrogen peroxide. Hydrogen peroxide reacts with reagent to produce a chromophore which is read bichromatically at 660/800 nm. The amount of dye formed is proportional to the uric acid concentration in the sample.
Serum samples for measurement of SUA levels were collected at the Screening Visit, the Week −4 Visit (prior to the first dose of MTX), and the Week −2 Visit during the MTX Run-in Period; within 48 hours prior to each pegloticase infusion and after the end of each pegloticase infusion prior to discharge from the site during the Pegloticase+IMM Period; at the non-infusion Week 52/End of Study/Early Termination Visits and at the Post Treatment 3 and 6 Month Follow-up Visits. Additional serum samples for SUA levels were collected at optional non-infusion (Frequent Sampling) Visits at Weeks 1 and 7. […] Subjects with SUA level >6 mg/dL at 2 consecutive visits beginning at Week 2 visit discontinued treatment, completed the End of Pegloticase Infusion Visit procedures within 2 weeks and continued the subject visits according to the protocol (without treatment).
Efficacy analyses were performed using the modified intention-to-treat (mITT) population, defined as all enrolled subjects who received ≥1 dose of pegloticase. The proportion of Month 6 responders was summarized, along with a 95% confidence interval for the proportion. The proportion of Month 3 and overall (Months 3 and 6 combined) responders was analyzed similarly.
A subject was declared a non-responder if the subject had SUA level >6 mg/dL at 2 consecutive study visits beginning with the Week 2 Visit. In addition, a subject who withdraws from study treatment for any reason after the first dose of pegloticase in the KXX+MTX Period and prior to Month 6 (for the primary endpoint) or Month 3 (for the secondary endpoint) was considered a non-responder if SUA values were not collected at the planned time points.
Patients were administered oral MTX (15 mg/week) and folate (1 mg/day) 4 weeks prior to the first pegloticase infusion (Day 1) and throughout the pegloticase treatment period. […]

[1] = Week 18 - Pre-Infusion, Month 6 sUA Responders
[2] = Week 18 - Pre-Infusion, mITT, n=11
[3] = Week 20 - Post-Infusion, Month 6 sUA Responders
[4] = Week 20 - Post-Infusion, mITT, n=11
[5] = Week 20 - Pre-Infusion, Month 6 sUA Responders
[6] = Week 20 - Pre-Infusion, mITT, n=11
[7] = Week 22 - Post-Infusion, Month 6 sUA Responders
[8] = Week 22 - Post-Infusion, mITT, n=11
[9] = Week 22 - Pre-Infusion, Month 6 sUA Responders
[10] = Week 22 - Pre-Infusion, mITT, n=11
[11] = Week 24 - Post-Infusion, Month 6 sUA Responders
[12] = Week 24 - Post-Infusion, mITT, n=5
[13] = Week 24 - Pre-Infusion, Month 6 sUA Responders

B1: pegloticase (protein)
chain: TYKKNDEVEFVRTGYGKDMIKVLHIQRDGKYHSIKEVATTVQLTLSSKKDYLHGDNSDVIPTDTIKNTVNVLAKFKGIKSIETFAVTICEHFLSSFKHVIRAQVYVEEVPWKRFEKNGVKHVHAFIYTPTGTHFCEVEQIRNGPPVIHSGIKDLKVLKTTQSGFEGFIKDQFTTLPEVKDRCFATQVYCKWRYHQGRDVDFEATWDTVRSIVLQKFAGPYDKGEYSPSVQKTLYDIQVLTLGQVPEIEDMEISLPNIHYLNIDMSKMGLINKEEVLLPLDNPYGKITGTVKRKLSSRL
modifications: monomethoxy PEG conjugated; Krystexxa Sequence
notes: covalent conjugate of uricase produced by a genetically modified strain of Escherichia coli and monomethoxypoly (ethylene glycol)
With B1 the “sUA Change from Baseline, Mean” value [1] was -8.97 mg/dL, the “sUA Change from Baseline, Median” value [1] was -8.80 mg/dL and the “sUA Observed, Mean” value [1] was 0.30 mg/dL. The “sUA Observed, Median” value [1] was 0.30 mg/dL, the “sUA < 6 mg/dL, n (%)” value [2] was 11 (100%) and the “sUA Change from Baseline, Mean (SD)” value [2] was −8.97 (2.810) mg/dL. The “sUA Change from Baseline, Median” value [2] was -8.80 mg/dL, the “sUA Observed, Mean (SD)” value [2] was 0.30 (0.000) mg/dL and the “sUA Observed, Median” value [2] was 0.30 mg/dL. For the same molecule, the “sUA < 6 mg/dL, %” value [3] was “(100%)”, the “sUA Change from Baseline, Mean” value [3] was -8.97 mg/dL and the “sUA Change from Baseline, Median” value [3] was -8.80 mg/dL. For the same molecule, the “sUA Observed, Mean” value [3] was 0.30 mg/dL, the “sUA Observed, Median” value [3] was 0.30 mg/dL and the “sUA < 6 mg/dL, n (%)” value [4] was 11 (100%). The “sUA Change from Baseline, Mean (SD)” value [4] was −8.97 (2.810) mg/dL, the “sUA Change from Baseline, Median” value [4] was -8.80 mg/dL and the “sUA Observed, Mean (SD)” value [4] was 0.30 (0.000) mg/dL. The “sUA Observed, Median” value [4] was 0.30 mg/dL, the “sUA < 6 mg/dL, %” value [5] was “(100%)” and the “sUA Change from Baseline, Mean” value [5] was -8.97 mg/dL. For the same molecule, the “sUA Change from Baseline, Median” value [5] was -8.80 mg/dL, the “sUA Observed, Mean” value [5] was 0.30 mg/dL and the “sUA Observed, Median” value [5] was 0.30 mg/dL. For the same molecule, the “sUA < 6 mg/dL, n (%)” value [6] was 11 (100%), the “sUA Change from Baseline, Mean (SD)” value [6] was −8.97 (2.810) mg/dL and the “sUA Change from Baseline, Median” value [6] was -8.80 mg/dL. For the same molecule, the “sUA Observed, Mean (SD)” value [6] was 0.30 (0.000) mg/dL, the “sUA Observed, Median” value [6] was 0.30 mg/dL and the “sUA < 6 mg/dL, %” value [7] was “(100%)”. The “sUA Change from Baseline, Mean” value [7] was -8.97 mg/dL, the “sUA Change from Baseline, Median” value [7] was -8.80 mg/dL and the “sUA Observed, Mean” value [7] was 0.30 mg/dL. For the same molecule, the “sUA Observed, Median” value [7] was 0.30 mg/dL, the “sUA < 6 mg/dL, n (%)” value [8] was 11 (100%) and the “sUA Change from Baseline, Mean (SD)” value [8] was −8.97 (2.810) mg/dL. For the same molecule, the “sUA Change from Baseline, Median” value [8] was -8.80 mg/dL, the “sUA Observed, Mean (SD)” value [8] was 0.30 (0.000) mg/dL and the “sUA Observed, Median” value [8] was 0.30 mg/dL. The “sUA < 6 mg/dL, %” value [9] was “(100%)”, the “sUA Change from Baseline, Mean” value [9] was -8.97 mg/dL and the “sUA Change from Baseline, Median” value [9] was -8.80 mg/dL. The “sUA Observed, Mean” value [9] was 0.30 mg/dL, the “sUA Observed, Median” value [9] was 0.30 mg/dL and the “sUA < 6 mg/dL, n (%)” value [10] was 11 (100%). For the same molecule, the “sUA Change from Baseline, Mean (SD)” value [10] was −8.97 (2.810) mg/dL, the “sUA Change from Baseline, Median” value [10] was -8.80 mg/dL and the “sUA Observed, Mean (SD)” value [10] was 0.30 (0.000) mg/dL. The “sUA Observed, Median” value [10] was 0.30 mg/dL, the “sUA < 6 mg/dL, %” value [11] was “(100%)” and the “sUA Change from Baseline, Mean” value [11] was -9.18 mg/dL. For the same molecule, the “sUA Change from Baseline, Median” value [11] was -9.30 mg/dL, the “sUA Observed, Mean” value [11] was 0.30 mg/dL and the “sUA Observed, Median” value [11] was 0.30 mg/dL. The “sUA < 6 mg/dL, n (%)” value [12] was 5 (100%), the “sUA Change from Baseline, Mean (SD)” value [12] was −9.18 (4.135) mg/dL and the “sUA Change from Baseline, Median” value [12] was -9.30 mg/dL. For the same molecule, the “sUA Observed, Mean (SD)” value [12] was 0.30 (0.000) mg/dL, the “sUA Observed, Median” value [12] was 0.30 mg/dL and the “sUA < 6 mg/dL, %” value [13] was “(100%)”. The “sUA Change from Baseline, Mean” value [13] was -8.97 mg/dL, the “sUA Change from Baseline, Median” value [13] was -8.80 mg/dL and the “sUA Observed, Mean” value [13] was 0.30 mg/dL. The “sUA Observed, Median” value [13] was 0.30 mg/dL.
